Reference: PMC6652007, “Metabolic engineering of Clostridium thermocellum for n-butanol production from cellulose” (Biotechnology for Biofuels, 2019)
Numbering of substitutions follows the chain as printed. Names may count otherwise.

Tests used:
coupled Hbd assay, A340 = substrate: CC(=O)SCCNC(=O)CCNC(=O)[C@H](O)C(C)(C)COP(=O)(O)OP(=O)(O)OC[C@H]1O[C@@H](n2cnc3c(N)ncnc32)[C@H](O)[C@@H]1OP(=O)(O)O; experiment: coupled Hbd assay, A340; assay type: biochemical, Thermoanaerobacterium thermosaccharolyticum; details: coupled with Hbd, 100 mM MOPS-KOH pH 7.5, 55 °C
Text: coupled Hbd assay, A340 on Tt_Thl

NAD(P)H oxidation, A340 [1] = substrate: NC(=O)C1=CN([C@@H]2O[C@H](COP(=O)(O)OP(=O)(O)OC[C@H]3O[C@@H](n4cnc5c(N)ncnc54)[C@H](O)[C@@H]3O)[C@@H](O)[C@H]2O)C=CC1; experiment: NAD(P)H oxidation, A340; assay type: biochemical, Winmispira thermophila; details: crotonyl-CoA as substrate, 100 mM MOPS-KOH pH 7.5, 55 °C, varied: cofactor
Text: (§1) NAD(P)H oxidation, A340 on St_Ter

NAD(P)H oxidation, A340 [2] = substrate: NC(=O)C1=CN([C@@H]2O[C@H](COP(=O)(O)OP(=O)(O)OC[C@H]3O[C@@H](n4cnc5c(N)ncnc54)[C@H](OP(=O)(O)O)[C@@H]3O)[C@@H](O)[C@H]2O)C=CC1; experiment: NAD(P)H oxidation, A340; assay type: biochemical, Winmispira thermophila; details: crotonyl-CoA as substrate, 100 mM MOPS-KOH pH 7.5, 55 °C, varied: cofactor
Text: as §1

NADH oxidation, A340 = substrate: C/C=C/C(=O)SCCNC(=O)CCNC(=O)[C@H](O)C(C)(C)COP(=O)(O)OP(=O)(O)OC[C@H]1O[C@@H](n2cnc3c(N)ncnc32)[C@H](O)[C@@H]1OP(=O)(O)O; experiment: NADH oxidation, A340; assay type: biochemical, Winmispira thermophila; details: 0.3 mM NADH, 100 mM MOPS-KOH pH 7.5, 55 °C
Text: NADH oxidation, A340 on St_Ter

B1: Tt_Thl (Thermoanaerobacterium thermosaccharolyticum DSM 571) (protein)
chain: MKEVVIASGVRTAVGKFGGTLLNVPAVDLGAVVIKEALKRANVKPEDVSEVIMGNVLQAGLGQNPARQAEIKAGIPVEVPAMTVNMVCGSGLRAVTLAAQAVMLGDADIVVAGGMENMSRAPYILNDARFGYRMNNGQLVDEMVYDGLTDVFNQYHMGITAENLAEKYGISREEQDEFAYRSQKLASEAISSGRFEDEIVPVIVPQKKGEPIEFKVDEHVRPNTTIEALAKLKPAFKKDGTVTAGNASGINDAAAAVVVMSKEKADELGIKPLATIKSFGYAGVDPSIMGIGPVYATRKALEKANLTVDDLDLIEANEAFAAQSLAVAKELKFNMDRVNVNGGAIAIGHPIGASGCRILVTLLYEMQKRNSHTGLATLCIGGGMGIAMVVER
notes: His-tagged (vector pD861-CH), codon-optimised, expressed in E. coli BL21(DE3)
Km (coupled Hbd assay, A340; 0.3 mM NADH): 2400 ± 580 µM

B2: Tt_Thl (Thermoanaerobacterium thermosaccharolyticum DSM 571; N153Y/S287K/V77Q) (protein)
chain: B1 chain with V77Q, N153Y, S287K
notes: as for B1
Km (coupled Hbd assay, A340; variant M1, NADH): 3300 ± 700 µM | Vmax (coupled Hbd assay, A340; variant M1, NADH): 15.3 µmol/min/mg

B3: Tt_Thl (Thermoanaerobacterium thermosaccharolyticum DSM 571; H156N/N223V/P222F/R133G) (protein)
chain: B1 chain with R133G, H156N, P222F, N223V
notes: as for B1
Km (coupled Hbd assay, A340; variant M2, NADH): 2600 ± 500 µM | Vmax (coupled Hbd assay, A340; variant M2, NADH): 45.2 µmol/min/mg

B4: St_Ter (Winmispira thermophila DSM 6578) (protein)
chain: MVIKPMIRNNICMNAHPEGCRLFVDRQIDYVRQRGPLSSGPKNVLVVGSSGGYGLATRIAAGFGAGAATIGVYFEKEPSEKRTGTPGWYAARHFLKRAEAAGLKVHDINGDAFSFEVKAQVVDLIKKEYGTIDLFVYSLASGVRTDPVSGVTYRSALKPIGRTYTSKALDPLKREVVQAAIEPASEEEIEATVKVMGGEDWQLWVEALKEGGVLAEGAVTVAYSYIGPELTRPIYREGTIGKAKEHLEATAKTLDEALASVGGKAYVSVNKAVVTRASAVIPAVPLYLSILFTVMKAKGIHEGCIEQMYRMLAERLYAGGPVPVDDEGRIRMDDWEMREDVQREVAEVWERITTETLDTEADVDGYLTDFLNLHGFGFKEIDYEKEVDPREG
notes: as for B1
Km (NAD(P)H oxidation, A340 [1]): 30 ± 10 µM | Vmax (NAD(P)H oxidation, A340 [1]): 18.2 µmol/min/mg | Km (NAD(P)H oxidation, A340 [2]): 400 ± 100 µM | Vmax (NAD(P)H oxidation, A340 [2]): 12.2 µmol/min/mg | Km (NADH oxidation, A340): 30 ± 10 µM

B5: St_Ter (Winmispira thermophila DSM 6578; E75A) (protein)
chain: B4 chain with E75A
notes: as for B1
Km (NAD(P)H oxidation, A340 [1]): 600 ± 100 µM | Vmax (NAD(P)H oxidation, A340 [1]): 10.3 µmol/min/mg | Km (NAD(P)H oxidation, A340 [2]): 20 ± 10 µM | Vmax (NAD(P)H oxidation, A340 [2]): 68.1 µmol/min/mg
